Legend:
cathepsin L = experiment: Enzymatic inhibitory activity against cathepsin L (kinetic analysis, Z-Phe-Arg-AMC substrate); assay type: biochemical
Protocol: (§1) The inhibitory activity of Elstatin (polypeptide of the present invention) against papain and cathepsin L was measured by the method of Barrett, A. J. and Kirschke, H. described in Method Enzymol., 80, 535-561 (1981) using Bz--DL--Arg-2-naphthylamide or Z--Phe--Arg--MCA as a substrate (Bz, Z and AMC represent benzoyl, benzyloxycarbonyl, and 4-methyl-7-coumarylamide).
(§2) The active site of the enzyme was titrated using a cysteine protease inhibitor Ep-475 (L-3-carboxy-trans-2,3-epoxypropyl-leucylamide-(3-guanizino)butane). Papain which had undergone the titration of active site was used to determine the molarity of the inhibitor (Turk, B. et al. J. Biol. Chem. 268, 7323-7329 (1993)).
(§3) The rate of the reaction employing Z--Phe--Arg--AMC as a substrate was determined by the kinetic analysis of Elstatin, papain, and cathepsin L. Different concentrations of Elstatin and a substrate (papain: 5 μM, cathepsin L: 10 μM) were dissolved in 1.97 ml of a buffer solution described above. In the measurement of cathepsin L, 0.34M acetate buffer (pH 5.5) containing 2 mM dithiothreitol and 1.5 mM EDTA was used. The reaction was started by the addition of 30 μl of activated papain (final concentration: 380 pM) and cathepsin L (final concentration: 60 pM). […] The obtained data were analysed by a non-linear regression analysis of Morrison (Trends Biochem. Sci. 7, 102-105 (1982)).

cathepsin B = experiment: Enzymatic inhibitory activity against cathepsin B (stopped assay); assay type: biochemical; settings: cathepsin B 130 nM, Elstatin 50-750 nM, pH 6.0, 25° 20 minutes, Bz-DL-Arg-2-naphthylamide
Protocol: (§4) Equilibrium dissociation constant (Ki) of Elstatin and cathepsin B and H was determined using stopped assay method. In detail, cathepsin B (final concentration: 130 nM) and cathepsin H (final concentration: 25 nM) were incubated together with different concentrations of Elstatin (final concentration: 50-750 nM) in 0.1M phosphate buffer (pH 6.0) containing 2 mM of dithiothreitol and 1.5 mM of EDTA at 25° for 20 minutes. The residual activity was determined using Bz--DL--Arg-2-naphthylamide as a substrate conditions identical to those according to Barrett, A. J. and Kirschke, H. mentioned above. The value Ki was calculated using a method of Henderson (Biochem. J. 127, 321-333 (1972)).

papain = experiment: Enzymatic inhibitory activity against papain (kinetic analysis, Z-Phe-Arg-AMC substrate); assay type: biochemical; settings: papain 380 pM, substrate Z-Phe-Arg-AMC 5 μM, 0.1M phosphate buffer pH 6.0
Protocol: as §1, §2, §3

[1] = tested on: unfractionated bone cells (osteoclastic bone resorption); experiment: Bone resorption inhibitory action (pit formation on ivory slices, parathyroid hormone induced); assay type: cell-based, Sprague-Dawley rats; settings: 50 nM human parathyroid hormone, 72 hours, FIG. 1
Protocol: A method proposed by McSheehy, P. M. J. and Chambers, T. J. in J Clin. Invest., 80, 425-429 (1987) was partly modified and applied.
Unfractionated bone cells were prepared from tibiae, femora and humeri of 1 to 2 day-old Sprague-Dawley rats. The bones were dissected into soft tissues in an ice-cold medium (pH 7.2) [α-minimum essential medium (α-MEM) (Flow Laboratories, McLean, Va.), supplemented with 100 IU/ml of benzylpenicillin] containing 20 mM N-2-hydroxyethyl-piperazine-N'-ethanesulfonic acid (HEPES). In order to prepare a bone cell preparation, long bones were minced with a pair of scissors in the same medium. Subsequently, the cell suspension was triturated with a wide bored plastic pipette. 200 μl of cell suspension (1×10^6 cells/ml) was added to each well of a 96 well-plate containing an ivory slice (thickness: 150 μm, diameter: 6 mm; ultrasonicated and disinfected with 75% ethanol), and the cells were incubated at 37° C. for 2 hours in a CO2 incubator (5% CO2 : 95% air). The slices were washed with α-MEM, and transferred to a HEPES-free fresh medium containing 10% FBS, each of test samples of various concentrations and 50 nM of human parathyroid hormone (Peninsula Laboratories Inc., Belmond, Calif.) and incubated for 72 hours. […] The total area of pits was measured under a microscope to detect possible osteoclastic bone resorption.

cathepsin H = experiment: Enzymatic inhibitory activity against cathepsin H (stopped assay); assay type: biochemical; settings: cathepsin H 25 nM, Elstatin 50-750 nM, pH 6.0, 25° 20 minutes, Bz-DL-Arg-2-naphthylamide
Protocol: as §4

B1: Elstatin: Novel 103-residue polypeptide (Sequence No. 1) isolated from pig leucocyte cytosol; specifically inhibits cathepsin L (protein)
chain: MESEEMLAGGLTEPRPATPEIQEIANKVKPQLEEKTNKTYEKFEAIIYRSQVVAGTNYYIKVHVGGNNYVHIRVFQSLPHQEDPLKLIGYQVDKTKDDELTGF
For B1, the Ki (cathepsin L; cathepsin L 60 pM, substrate Z-Phe-Arg-AMC 10 μM, 0.34M acetate buffer pH 5.5) was 0.067 ± 0.036 nM, the “Specificity of inhibition among the cathepsin group” value (cathepsin L; cathepsin L versus cathepsins B and H) was “specifically inhibits only cathepsin L among the members of the cathepsin group” and the Ki (cathepsin B) was 335 ± 50 nM. The Ki (papain) was 0.19 ± 0.097 nM, the “Bone resorption inhibitory action (total area of pits)” value [1] was “significantly potent bone resorption inhibitory action” and the Ki (cathepsin H) was 125 ± 7 nM.
